According to article PMC10842001 (FEBS letters, 2023):
Bridges are numbered along the chain shown (N, C = ends). Where no end group is shown, it is not given here. [ ]: non-standard residue; d: D form. Trp(5-OH) = N[C@@H](Cc1c[nH]c2ccc(O)cc12)C(=O)O; Phe(4-NH2) = Nc1ccc(C[C@H](N)C(=O)O)cc1; βAla = NCCC(=O)O

Experiments:
[1] = target: PSD-95 PDZ3cα protein (residues R309-S422) (UniProt P78352); test: SPR
[2] = system: PDZ3cα fragment; settings: cited from earlier work
[3] = target: PSD-95 PDZ3cα protein (residues R309-S422) (UniProt P78352 309-422); test: SPR
Chain of PSD-95 PDZ3cα protein (residues R309-S422) (UniProt P78352 309-422) (P78352 309-422): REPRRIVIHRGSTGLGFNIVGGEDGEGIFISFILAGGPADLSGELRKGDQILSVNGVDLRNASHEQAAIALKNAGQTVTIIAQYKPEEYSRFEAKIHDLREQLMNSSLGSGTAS

Chain of PSD-95 PDZ3cα protein (residues R309-S422) (UniProt P78352) (P78352 309-422): as above

| Molecule | Kd [3] | koff [3] | kon [3] | further results |
| --- | --- | --- | --- | --- |
| V8L (peptide 9), SYNGAP peptide with the substitution V8L | – | – | – | Kd [1]: 58.4 nM; koff [1]: 0.00381 s⁻¹ |
| F4H (peptide 11), SYNGAP peptide with the substitution F4H | – | – | – | Kd [1]: 121 nM; koff [1]: 0.0261 s⁻¹; kon [1]: 216000 M⁻¹ s⁻¹ |
| -YKQTSV [CRIPT linear PBM] | – | – | – | fold higher affinity for PDZ3cα fragment than for the isolated PDZ3 domain ([2]; ref [31]): 21 fold |
| -VQQTRV [SynGAP PBM] | – | – | – | fold higher affinity to the longer PDZ3cα fragment ([2]; relative to isolated PDZ domains, ref [10], [30]): 15 fold |
| V8I (peptide 10), SYNGAP peptide with the substitution V8I | – | – | – | Kd [1]: 101 nM; koff [1]: 0.00294 s⁻¹ |
| RRRRRRGSFPPW[dV]QQTRV [D-Val8 (peptide 17), SYNGAP peptide with d-Val] | 20.9 nM | 0.0459 s⁻¹ | 2.19e+06 M⁻¹ s⁻¹ | – |
| RRRRRRGSFP[dP]WVQQTRV [D-Pro5 (peptide 16), SYNGAP peptide with d-Pro at the second proline] | 24.3 nM | 0.0444 s⁻¹ | 1.83e+06 M⁻¹ s⁻¹ | – |
| CGSFPPWVKKTEV (bridge 10-12; not fully specified (residue 10, bridges)) [Syn3* (peptide 4), active component peptide of Syn3 without the poly-arginine moiety] | – | 0.0287 s⁻¹ | 439000 M⁻¹ s⁻¹ | – |
| RRRRRRGSFPP[Trp(5-OH)]VQQTRV [W7-OHW (peptide 13), SYNGAP peptide with 5-hydroxy-Trp in place of Trp7] | 446 nM | 0.0106 s⁻¹ | 24000 M⁻¹ s⁻¹ | – |
| RRRRRRGSFPPWV[dQ]QTRV [D-Gln9 (peptide 18), SYNGAP peptide with d-Gln] | 57.3 nM | 0.0182 s⁻¹ | 317000 M⁻¹ s⁻¹ | – |
| GSFPPWVQ [αC binder (peptide 8), fragment of the SYNGAP peptide made up of only αC helix interacting residues] | 11100 nM | 0.00592 s⁻¹ | 1000 M⁻¹ s⁻¹ | – |

Second part, led by results:

| Kd [3] | koff [3] | kon [3] | Molecule | further results |
| --- | --- | --- | --- | --- |
| 7.8 nM | 0.00493 s⁻¹ | 633000 M⁻¹ s⁻¹ | RRRRRRG[dS]FPPWVQQTRV [D-Ser3 (peptide 14), SYNGAP peptide with d-Ser] | – |
| 6.1 nM | 0.0116 s⁻¹ | 1.88e+06 M⁻¹ s⁻¹ | RRRRRRGSF[dP]PWVQQTRV [D-Pro4 (peptide 15), SYNGAP peptide with d-Pro at the first proline] | – |
| – | 0.0291 s⁻¹ | 76000 M⁻¹ s⁻¹ | CKNYKKTEV (lactam 6-8 via βAla) [Cyclic peptide derived from CRIPT (peptide 6)] | – |
| 67.8 nM | 0.0104 s⁻¹ | 153000 M⁻¹ s⁻¹ | RRRRRRGS[Phe(4-NH2)]PPWVQQTRV [F4-NH2F (peptide 12), SYNGAP peptide with ζ-Amino-Phe in place of Phe4] | – |
